Test results taken from paper PMC3348139.
Blank lines part the entries; values can stand above or below the substance they belong to.

Columns and labels:
[1] = target: A230V human cardiac actin (A230V ACTC) (human); assay: pyrene-actin polymerisation assay (critical concentration); actin in G-buffer mixed with 2.5% pyrene-labeled alpha-skeletal actin; polymerization buffer 25 mM Tris pH 8.0, 50 mM KCl, 1 mM EGTA, 2 mM MgCl2, 0.1 mM ATP; Cc is the x-intercept of the change in pyrene fluorescence against actin concentration; monomer to filament
DNase-I = DNase-I (UniProt P00639)
DNase-I, sequence (P00639 23-282): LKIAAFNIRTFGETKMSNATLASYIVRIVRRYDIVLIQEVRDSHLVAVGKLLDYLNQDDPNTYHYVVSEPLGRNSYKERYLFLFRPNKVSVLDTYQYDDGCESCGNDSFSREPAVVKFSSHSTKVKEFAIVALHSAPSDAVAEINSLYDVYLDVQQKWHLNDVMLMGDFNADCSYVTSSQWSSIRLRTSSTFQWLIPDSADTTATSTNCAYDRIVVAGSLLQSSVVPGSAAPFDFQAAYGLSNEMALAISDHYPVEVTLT

[2] = target: A331P human cardiac actin (A331P ACTC) (human); assay: pyrene-actin polymerisation assay (critical concentration); actin in G-buffer mixed with 2.5% pyrene-labeled alpha-skeletal actin; polymerization buffer 25 mM Tris pH 8.0, 50 mM KCl, 1 mM EGTA, 2 mM MgCl2, 0.1 mM ATP; Cc is the x-intercept of the change in pyrene fluorescence against actin concentration; monomer to filament
[3] = target: E99K human cardiac actin (E99K ACTC) (human); assay: as above
[4] = target: E361G human cardiac actin (E361G ACTC) (human); assay: as above
[5] = target: M305L human cardiac actin (M305L ACTC) (human); assay: as above
[6] = target: R312H human cardiac actin (R312H ACTC) (human); assay: as above
[7] = target: Y166C human cardiac actin (Y166C ACTC) (human); assay: as above
[8] = target: wildtype human cardiac actin (WT ACTC) (human) (UniProt P68032); assay: as above

Substance: A331P human cardiac actin (A331P ACTC) (natural protein)
Cc (critical concentration of polymerisation) [2]: 2.95 µM
IC50 of inhibition of DNase-I activity (A260 with salmon sperm DNA; 0 to 100 nM ACTC, 15.4 nM DNase-I) (DNase-I): 26 nM

Substance: E99K human cardiac actin (E99K ACTC) (natural protein)
Cc (critical concentration of polymerisation) [3]: 1.67 µM
IC50 of inhibition of DNase-I activity (A260 with salmon sperm DNA; 0 to 100 nM ACTC, 15.4 nM DNase-I) (DNase-I): 25.7 nM

Substance: E361G human cardiac actin (E361G ACTC) (natural protein)
Cc (critical concentration of polymerisation) [4]: 0.58 µM
IC50 of inhibition of DNase-I activity (A260 with salmon sperm DNA; 0 to 100 nM ACTC, 15.4 nM DNase-I) (DNase-I): 16.8 nM

Substance: M305L human cardiac actin (M305L ACTC) (natural protein)
Cc (critical concentration of polymerisation) [5]: 2.21 µM
IC50 of inhibition of DNase-I activity (A260 with salmon sperm DNA; 0 to 100 nM ACTC, 15.4 nM DNase-I) (DNase-I): 17 nM

Second part, the substance after the results:

Cc (critical concentration of polymerisation) [1]: 2.11 µM
IC50 of inhibition of DNase-I activity (A260 with salmon sperm DNA; 0 to 100 nM ACTC, 15.4 nM DNase-I) (DNase-I): 15.3 nM
Substance: A230V human cardiac actin (A230V ACTC) (natural protein)

Cc (critical concentration of polymerisation) [6]: 4.75 µM
IC50 of inhibition of DNase-I activity (A260 with salmon sperm DNA; 0 to 100 nM ACTC, 15.4 nM DNase-I); the value rose on later days after purification (DNase-I): 36.7 nM
Substance: R312H human cardiac actin (R312H ACTC) (natural protein)

Cc (critical concentration of polymerisation) [7]: 2.67 µM
IC50 of inhibition of DNase-I activity (A260 with salmon sperm DNA; 0 to 100 nM ACTC, 15.4 nM DNase-I) (DNase-I): 24.6 nM
Substance: Y166C human cardiac actin (Y166C ACTC) (natural protein)

Cc (critical concentration of polymerisation) [8]: 0.28 µM
IC50 of inhibition of DNase-I activity (A260 with salmon sperm DNA; 0 to 100 nM ACTC, 15.4 nM DNase-I) (DNase-I): 13.2 nM
Substance: wildtype human cardiac actin (WT ACTC) (from UniProt P68032 1-377) (natural protein)
